The record followed here is paper PMC4361889.

The target of this experiment is Taliglucerase alfa (recombinant GCase) (human) (UniProt P04062). Briefly: AUC.

Take “Taliglucerase alfa (recombinant GCase) (from UniProt P04062 40-536) (enzyme)”: the population of the dimer species amounted to 47% and the stoichiometry N (in general, a count of units in the complex or per binding partner) turned out to be 2.
